This series can be described thus: self-splicing fitness, log relative to wild type (ln ratio); higher = more splicing; Tetrahymena group I intron in knt gene, E. coli kanamycin selection, DiMSum; sequences stand for … in CUCUCU…GGAGGGAAAAGUUAUCAGGCAUGCACCUGGUAGCUAGUCUUUAAACCAAUAGAUUGCAUCGGUUUAAAAGGCAAGACCGUCAAAUUGCGGGAAAGGGGUCAACAGCCGUUCAGUACCAAGUCUCAGGGGAAACUUUGAGAUGGCCUUGCAAAGGGUAUGGUAAUAAGCUGACGGACAUGGUCCUAACCACGCAGCCAAGUCCUAAGUCAACAGAUCUUCUGUUGAUAUGGAUGCAGUUCACAGACUAAAUGUCGGUCGGGGAAGAUGUAUUCUUCUCAUAAGAUAUAGUCGGACCUCUCCUUAAUGGGAGCUAGCGGAUGAAGUGAUGCAACACUGGAGCCGCUGGGAACUAAUUUGUAUGCGAAAGUAUAUUGAUUAGUUUUGGAGUACUCGUGGUCG
An outline of the steps: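 The eight P1ex-region nucleotides of an intron in the knt kanamycin-resistance gene on pET-22b(+) were all randomised and the library put into E. coli BL21(DE3). Six replicate transformations were grown overnight at 37°C or 30°C on LB agar with or without 25 μg/mL kanamycin, together with 100 μg/mL carbenicillin, 50 μM IPTG and 0.2% rhamnose. Colonies were pooled and amplicon-sequenced on an Illumina HiSeq 2500. Fitness from DiMSum is the error-weighted combination of wild-type-normalised replicate fold changes, kanamycin over none.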

Experimental findings from the supplement of paper PMC7877785 are described below.

± gives the uncertainty stated by the source.

With AGGGAGCAAUAUUACGAAGG, the “self-splicing fitness (ln)” value (30 °C) is -2.19 ± 0.31.

In the case of CAUAAGCAAUAUUACGGCCA, the “self-splicing fitness (ln)” value reads like this: (30 °C) -2.38 ± 0.26; (37 °C) -2.62 ± 0.29.

For the sequence UAGAAGCAAUAUUACGGAUC, the “self-splicing fitness (ln)” value is -2.24 ± 0.12 (30 °C) and -1.49 ± 0.17 (37 °C).

As for UUAAAGCAAUAUUACGCUAG, the “self-splicing fitness (ln)” value is -0.313 ± 0.092 (30 °C) and 0.141 ± 0.11 (37 °C).

For AGUUAGCAAUAUUACGUAUA, the “self-splicing fitness (ln)” value was -3.01 ± 0.19 (30 °C) and -1.57 ± 0.16 (37 °C).

On to CGAAAGCAAUAUUACGAACU, for which the “self-splicing fitness (ln)” value (30 °C) is -1.25 ± 0.091 and the “self-splicing fitness (ln)” value (37 °C) was 0.0371 ± 0.14.

For the sequence CUAUAGCAAUAUUACGCACG, the “self-splicing fitness (ln)” value is, setting by setting: (30 °C) -0.606 ± 0.14; (37 °C) -0.255 ± 0.23.

CCAAAGCAAUAUUACGAGUA: the “self-splicing fitness (ln)” value runs as follows: (30 °C) -3.15 ± 0.23; (37 °C) -2.6 ± 0.23.

Consider AGAUAGCAAUAUUACGGCAU, for which the “self-splicing fitness (ln)” value (30 °C) was -0.734 ± 0.11 and the “self-splicing fitness (ln)” value (37 °C) came to 0.242 ± 0.12.

With GUAUAGCAAUAUUACGGACC, the “self-splicing fitness (ln)” value reads like this: (30 °C) -1.89 ± 0.5; (37 °C) -2.56 ± 0.3.

UCUGAGCAAUAUUACGGCUA: the “self-splicing fitness (ln)” value reads like this: (30 °C) -3.33 ± 0.42; (37 °C) -2.58 ± 0.29.

In the case of CUAAAGCAAUAUUACGUACC, for the setting “37 °C”, the “self-splicing fitness (ln)” value was -2.03 ± 0.46.

As for CUCGAGCAAUAUUACGUACC, the “self-splicing fitness (ln)” value is -2.32 ± 0.26 (30 °C) and -0.911 ± 0.39 (37 °C).

In the case of UGACAGCAAUAUUACGCGCA, the “self-splicing fitness (ln)” value is -0.495 ± 0.072 (30 °C) and 0.187 ± 0.077 (37 °C).

Regarding UUCGAGCAAUAUUACGACUG, the “self-splicing fitness (ln)” value is -3.35 ± 0.34 (30 °C) and -1.48 ± 0.26 (37 °C).

For the sequence CACCAGCAAUAUUACGAAAC, where the note is “37 °C”, the “self-splicing fitness (ln)” value was -2.12 ± 0.31.

As for ACGGAGCAAUAUUACGGCCU, the “self-splicing fitness (ln)” value is -2.12 ± 0.17 (30 °C) and -1.2 ± 0.21 (37 °C).

With CCGUAGCAAUAUUACGCUGU, the “self-splicing fitness (ln)” value runs as follows: (30 °C) -3.79 ± 0.25; (37 °C) -3.17 ± 0.26.

As to CAUGAGCAAUAUUACGGGCG, the “self-splicing fitness (ln)” value is -0.135 ± 0.075 (30 °C) and 0.178 ± 0.092 (37 °C).

Take AACUAGCAAUAUUACGUAUU: the “self-splicing fitness (ln)” value is, setting by setting: (30 °C) -2.04 ± 0.082; (37 °C) -0.837 ± 0.11.

In the case of CCUGAGCAAUAUUACGGGUC, the “self-splicing fitness (ln)” value is, setting by setting: (30 °C) -2.95 ± 0.17; (37 °C) -2.87 ± 0.27.

Turning to GUCAAGCAAUAUUACGUCCG, the “self-splicing fitness (ln)” value (37 °C) was -3.83 ± 0.39.

Consider CCCUAGCAAUAUUACGGGAC, for which the “self-splicing fitness (ln)” value runs as follows: (30 °C) -2.48 ± 0.18; (37 °C) -1.87 ± 0.23.

With CAAGAGCAAUAUUACGGUCC, the “self-splicing fitness (ln)” value (30 °C) was -2.01 ± 0.35 and the “self-splicing fitness (ln)” value (37 °C) is -1.76 ± 0.33.

Turning to CUGAAGCAAUAUUACGAAGG, the “self-splicing fitness (ln)” value reads like this: (30 °C) -0.457 ± 0.093; (37 °C) -1.38 ± 0.14.

With ACCAAGCAAUAUUACGUAUU, the “self-splicing fitness (ln)” value reads like this: (30 °C) -3.77 ± 0.14; (37 °C) -2.07 ± 0.12.

Take UCUUAGCAAUAUUACGGUAC: the “self-splicing fitness (ln)” value runs as follows: (30 °C) -3.68 ± 0.41; (37 °C) -2.51 ± 0.48.

Regarding CUGAAGCAAUAUUACGCCGA, the “self-splicing fitness (ln)” value (30 °C) is -1.44 ± 0.22.

Take AGGCAGCAAUAUUACGUGGG: the “self-splicing fitness (ln)” value reads like this: (30 °C) -2.95 ± 0.095; (37 °C) -2.97 ± 0.15.

AUGGAGCAAUAUUACGCUCG: the “self-splicing fitness (ln)” value is -1.58 ± 0.14 (30 °C) and -0.952 ± 0.18 (37 °C).

On to CCCAAGCAAUAUUACGGGGA, for which the “self-splicing fitness (ln)” value is -2.82 ± 0.13 (30 °C) and -1.62 ± 0.09 (37 °C).

Consider AAGCAGCAAUAUUACGUAAC, for which the “self-splicing fitness (ln)” value (30 °C) was -2.67 ± 0.11 and the “self-splicing fitness (ln)” value (37 °C) was -1.94 ± 0.14.

As to GAGUAGCAAUAUUACGGCGG, the “self-splicing fitness (ln)” value reads like this: (30 °C) -4.56 ± 0.36; (37 °C) -2.02 ± 0.21.

ACGCAGCAAUAUUACGCGAC: the “self-splicing fitness (ln)” value reads like this: (30 °C) -2.01 ± 0.15; (37 °C) -2.24 ± 0.21.

Take CUAAAGCAAUAUUACGCUCU: the “self-splicing fitness (ln)” value (30 °C) is -2.94 ± 0.41.

With UCAUAGCAAUAUUACGCCUA, the “self-splicing fitness (ln)” value (30 °C) was -2.62 ± 0.34 and the “self-splicing fitness (ln)” value (37 °C) is -1.85 ± 0.27.

For GACAAGCAAUAUUACGUGAG, the “self-splicing fitness (ln)” value is, setting by setting: (30 °C) -2.28 ± 0.058; (37 °C) -1.43 ± 0.06.

For the sequence GGCCAGCAAUAUUACGGGAC, the “self-splicing fitness (ln)” value (30 °C) was -2.68 ± 0.12 and the “self-splicing fitness (ln)” value (37 °C) is -1.21 ± 0.15.

As for AAUCAGCAAUAUUACGAUUU, the “self-splicing fitness (ln)” value is -1.8 ± 0.076 (30 °C) and -0.714 ± 0.086 (37 °C).
